According to article PMC4231769, “The Werner syndrome protein limits the error-prone 8-oxo-dG lesion bypass activity of human DNA polymerase kappa” (Nucleic Acids Research, 2014):

T1: GST-tagged hpol κ^19-526 (human DNA polymerase kappa catalytic core) (human, UniProt Q9UBT6 19-526)
T1 construct: human DNA polymerase kappa (hpol κ), residues 19-526, catalytic core; The pull-downs used GST-tagged hpol κ^19-526; The polymerase assays (functional rows) name hpol κ^19-526 without a GST tag; also called GST-hpol κ; source: recombinant, purified
T1 sequence (looked up): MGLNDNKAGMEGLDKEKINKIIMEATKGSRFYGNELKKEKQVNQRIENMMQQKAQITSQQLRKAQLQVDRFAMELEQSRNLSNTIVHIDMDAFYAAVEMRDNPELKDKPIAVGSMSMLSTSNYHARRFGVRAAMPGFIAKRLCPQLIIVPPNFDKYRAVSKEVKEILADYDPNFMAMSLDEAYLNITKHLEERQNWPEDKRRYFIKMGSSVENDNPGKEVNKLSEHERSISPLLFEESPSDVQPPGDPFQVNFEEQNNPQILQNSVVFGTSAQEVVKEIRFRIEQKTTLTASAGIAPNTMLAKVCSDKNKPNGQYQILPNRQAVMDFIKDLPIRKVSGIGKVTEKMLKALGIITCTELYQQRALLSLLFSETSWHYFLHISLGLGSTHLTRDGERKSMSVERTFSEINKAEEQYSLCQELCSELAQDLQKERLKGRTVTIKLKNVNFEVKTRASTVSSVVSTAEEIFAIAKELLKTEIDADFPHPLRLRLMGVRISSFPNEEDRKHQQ


Molecular target: T1, GST-tagged hpol κ^19-526 (human DNA …)
Assay: pull-down; GST-hpol κ^19-526 on glutathione Sepharose beads (~1200 pmol), WRN construct 1 μM (~500 pmol) in 500 μl; 25 mM HEPES pH 7.5, 0.1 M NaCl, 10% glycerol, 5 mM β-ME; 16 h at 4°C; Coomassie-stained SDS-PAGE; specific binding = fraction bound to GST-hpol κ beads divided by fraction bound to GST-coated beads
Settings: both partners purified

Row | Binder | fold bound to GST-hpol κ beads over GST beads [fold] | binding result
1 | WRN^500-1092 ATPase/RQC construct (domain or fragment, source: E. coli BL21 (DE3) Gold, purified (Ni Sepharose, Glutathione Sepharose, HRV 3C cleavage); not shown: 6xHis, N-terminal, cleaved; GST, N-terminal, cleaved) not shown | ~2 | 
2 | WRN^949-1092 RQC domain (domain or fragment, UniProt Q14191 949-1092, looked up, source: E. coli BL21 (DE3) Gold, purified (Ni Sepharose, Glutathione Sepharose, HRV 3C cleavage); not shown: 6xHis, N-terminal, cleaved; GST, N-terminal, cleaved) MDDSEDTSWDFGPQAFKLLSAVDILGEKFGIGLPILFLRGSNSQRLADQYRRHSLFGTGKDQTESWWKAFSRQLITEGFLVEVSRYNKFMKICALTKKGRNWLHKANTESQSLILQANEELCPKKLLLPSSKTVSSGTKEHCYN | ~3 | 
3 | WRN^1-333 exo domain (domain or fragment, UniProt Q14191 1-333, looked up, also called WRN exo) MSEKKLETTAQQRKCPEWMNVQNKRCAVEERKACVRKSVFEDDLPFLEFTGSIVYSYDASDCSFLSEDISMSLSDGDVVGFDMEWPPLYNRGKLGKVALIQLCVSESKCYLFHVSSMSVFPQGLKMLLENKAVKKAGVGIEGDQWKLLRDFDIKLKNFVELTDVANKKLKCTETWSLNSLVKHLLGKQLLKDKSIRCSNWSKFPLTEDQKLYAATDAYAGFIIYRNLEILDDTVQRFAINKEEEILLSDMNKQLTSISEEVMDLAKHLPHAFSKLENPRRVSILLKDISENLYSLRRMIIGSTNIETELRPSNNLNLLSFEDSTTGGVQQKQI |  | binds
